Substitutions are numbered along the chain they refer to. Names and notes keep the numbering of the source.
Experiments:
[1] = molecular target: T1, Avi-tagged NFR5 (residues 276-595, Avitag) (Lotus japonicus, biotinylated Avi tag implied by capture on streptavidin biosensors; site not given); assay: BLI, Avi-tagged NFR5 on streptavidin biosensors, Nb200 5-0.08 µM, 1:1 association/dissociation fit
T1 construct: NFR5 intracellular domain (juxtamembrane, pseudokinase, C-terminal tail) with an N-terminal Avi tag, immobilised on streptavidin biosensors; also called NFR5 Avitag; AviTag NFR5
T1 chain: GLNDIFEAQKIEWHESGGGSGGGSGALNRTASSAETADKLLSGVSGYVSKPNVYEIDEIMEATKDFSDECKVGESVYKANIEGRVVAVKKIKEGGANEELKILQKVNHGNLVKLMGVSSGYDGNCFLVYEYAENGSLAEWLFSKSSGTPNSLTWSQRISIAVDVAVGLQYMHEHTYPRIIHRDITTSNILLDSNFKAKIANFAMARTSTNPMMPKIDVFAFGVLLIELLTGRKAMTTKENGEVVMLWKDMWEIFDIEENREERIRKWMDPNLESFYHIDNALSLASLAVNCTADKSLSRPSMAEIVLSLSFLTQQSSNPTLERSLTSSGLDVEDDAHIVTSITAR
Excerpt: (§1) The x-axis indicates time in seconds. The y-axis indicates the wavelength shift in nm. […] The x-axis indicates time in seconds. The y-axis indicates the wavelength shift in nm. […] Blue dotted lines demarcate fractions with complex formation, labelled as P1. Elution of excess Nb200 is labelled as P2. The x-axis indicates volume through the column in mL. The y-axis indicates the UV₂₈₀ milli absorbance units (mAu). […] The first lane, “M”, contains a molecular weight ladder, labeled to the left of the gel picture with the respective kDa amount. Lane “Inp” contains a sample of the input. Lanes “P1” contain fractions from the P1 complex section of the purification. Lanes “P2” contain fractions from the P2 section of the purification with excess Nb200. The black horizontal line over lanes indicates fractions pooled. Arrows indicate the proteins of interest.
(§2) Streptavidin (SA) biosensors (kinetic quality, Molecular devices, FortéBio) were equilibrated in Binding buffer (50 mM Tris-HCl pH 8, 200 mM NαCl, 0.01% TWEEN® 20) before use. AviTag™ NFR5 in Binding buffer was immobilized on SA sensors until 0.1 nm using an Octet® RED96 (Molecular devices, ForteBio) at 25° C. […] Unspecific binding was measured to a biotin loaded SA sensor and was subtracted from the interaction datasets.

[2] = molecular target: T2, C-terminal tailless NFR5 (residues 276-563) (Lotus japonicus); assay: size exclusion chromatography of NFR5 (residues 276-563) mixed with an excess of Nb200, fractions analysed by SDS-PAGE (co-elution)
T2 construct: Construct used for the SEC complex and the crystal structure with Nb200 (PDB 8S79)
T2 chain: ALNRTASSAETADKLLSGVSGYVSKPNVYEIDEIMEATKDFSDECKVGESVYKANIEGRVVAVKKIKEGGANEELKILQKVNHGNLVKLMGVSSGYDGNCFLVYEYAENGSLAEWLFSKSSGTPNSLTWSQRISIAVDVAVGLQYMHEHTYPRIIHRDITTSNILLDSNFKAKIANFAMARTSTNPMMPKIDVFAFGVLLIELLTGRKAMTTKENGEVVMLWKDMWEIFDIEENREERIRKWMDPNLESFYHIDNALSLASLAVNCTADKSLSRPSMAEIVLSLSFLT

[3] = molecular target: T1, Avi-tagged NFR5 (residues 276-595, …); assay: bio-layer interferometry; Avi-tagged NFR5 immobilised on streptavidin biosensors, Nb200 control in solution at 0.08-5 µM
Excerpt: as §1, §2

[4] = molecular target: the molecule itself; assay: dynamic light scattering, concentration series 1-6 mg/ml, self-interaction in solution
Excerpt: Diffusion coefficients/concentration plots were used to derive self-interaction parameters, kSI (also known as the diffusion interaction parameter kD), by linear regression in GraphPad prism 9 (Graphstats Technologies).
It was hypothesized that the exposed juxtamembrane motif could function as a hydrophobic interaction surface. […] The NFR5 pattern resembled the pattern formed by the well-known oligomer forms of Bovine Serum Albumin (FIG. 7B). Dynamic light scattering (DLS) was used to measure the in solution particle size dispersity of the NFR5 sample. […] To investigate whether this self-interaction was mediated by the juxtamembrane motif, two variants were generated with substitutions in either αA (L290E, L291E) or αA′ (V294E, Y297E, V298E) that were referred to as 2E (SEQ ID NO: 148) and 3E (SEQ ID NO: 149), respectively (FIG. 7A). It was hypothesized that the introduction of charged glutamates would abolish hydrophobic interactions engaged by the motif. […] A second DLS experiment was performed to compare the in solution self-interaction of wildtype NFR5 with 2E and 3E by measuring their self-interaction parameter (kSI) over a protein concentration series (FIGS. 7D-7F). […] Next an N-terminal Avi-tagged NFR5 was purified in order to immobilize the NFR5 intracellular domain on a streptavidin biosensor (FIGS. 4A-4D, 7G). The immobilized NFR5 was used in a bio-layer interferometry experiment to measure interaction to WT, 2E, and 3E variants (FIGS. 7H-7J).

[5] = molecular target: T1, Avi-tagged NFR5 (residues 276-595, …); assay: bio-layer interferometry; Avi-tagged NFR5 WT immobilised on streptavidin biosensors, NFR5 WT in solution at 0.07-3.6 mg/mL
Protocol: (§3) An Avi-tagged version of NFR5 WT (purple) was purified and immobilized on streptavidin biosensors (top box with four-pointed stars representing streptavidin). NFR5 loaded biosensors were assayed against NFR5 WT, 2E (SEQ ID NO: 148), and 3E (SEQ ID NO: 149). […] A clear concentration dependent interaction to NFR5 WT was measured. The x-axis indicates time in seconds; the y-axis indicates nm. […] No interaction was observed. The x-axis indicates time in seconds; the y-axis indicates nm.
as §2, with “datasets. Data was processed and analyzed in FortéBio Data Analysis 7 (Molecular devices, ForteBio) and GraphPad prism 9 (Graphstats Technologies). […]” for “datasets.”

[6] = molecular target: T1, Avi-tagged NFR5 (residues 276-595, …); assay: bio-layer interferometry; Avi-tagged NFR5 WT immobilised on streptavidin biosensors, NFR5 2E in solution at 0.07-3.6 mg/mL
Protocol: as §3
as §2, with “datasets. Data was processed and analyzed in FortéBio Data Analysis 7 (Molecular devices, ForteBio) and GraphPad prism 9 (Graphstats Technologies). […]” for “datasets.”

[7] = molecular target: T1, Avi-tagged NFR5 (residues 276-595, …); assay: bio-layer interferometry; Avi-tagged NFR5 WT immobilised on streptavidin biosensors, NFR5 3E in solution at 0.07-3.6 mg/mL
Protocol: as §3
as §2, with “datasets. Data was processed and analyzed in FortéBio Data Analysis 7 (Molecular devices, ForteBio) and GraphPad prism 9 (Graphstats Technologies). […]” for “datasets.”

B1: VHH Nb200 (VHH)
VHH: QVQLVESGGGSVQAGDSLRLSCTGPGRTDGPYVMGWFRQAPEKEREFVAAISRYGSGTYYADSVRGRFTISRDNVKNTVYLQMNSLKPEDTAIYYCNRVPPVLSWGQGTQVTVSS
notes: also called Nb2NFR5
[1]
  Kd: 174 nM
[2]
  binding result: binds

B2: VHH Nb200 control (A51E Y60E V100E) (VHH)
VHH: B1 VHH with A50E, Y59E, V99E
notes: Negative control triple mutant of Nb200; VHHs were cloned with a C-terminal 6xHis tag; also called VHH Nb200 mutant; Nb200 A51E Y60E V100E
[3]
  binding result: no binding (tested: 5 µM)

B3: NFR5 intracellular domain (residues 276-595) (receptor)
chain: ALNRTASSAETADKLLSGVSGYVSKPNVYEIDEIMEATKDFSDECKVGESVYKANIEGRVVAVKKIKEGGANEELKILQKVNHGNLVKLMGVSSGYDGNCFLVYEYAENGSLAEWLFSKSSGTPNSLTWSQRISIAVDVAVGLQYMHEHTYPRIIHRDITTSNILLDSNFKAKIANFAMARTSTNPMMPKIDVFAFGVLLIELLTGRKAMTTKENGEVVMLWKDMWEIFDIEENREERIRKWMDPNLESFYHIDNALSLASLAVNCTADKSLSRPSMAEIVLSLSFLTQQSSNPTLERSLTSSGLDVEDDAHIVTSITAR
notes: Expressed with an N-terminal thioredoxin-6xHis-TEV fusion tag that was removed by TEV protease before use; also called NFR5 WT
[4]
  self-interaction parameter kSI: -14.6 mL/g
[5]
  binding result: binds

B4: NFR5 residues 276-595, L290E/L291E (2E) (receptor)
chain: B3 chain with L15E, L16E
notes: Mutation numbers follow full-length NFR5; also called NFR5 2E; alphaA 2E
[4]
  self-interaction parameter kSI: -10.8 mL/g
[6]
  binding result: no binding (tested: 3.6 mg/mL)

B5: NFR5 residues 276-595, V294E Y297E V298E (3E) (receptor)
chain: B3 chain with V19E, Y22E, V23E
notes: Mutation numbers follow full-length NFR5; also called NFR5 3E; alphaA' 3E
[4]
  self-interaction parameter kSI: -7.1 mL/g
[7]
  binding result: no binding (tested: 3.6 mg/mL)
